Measured values as given in the domain aggregation screens of Martell et al. (2025).

assay: soluble fraction after stress (log2 fold change); higher = more stays soluble; pooled small domains, quantitative proteomics; settings: stress: 50 degC
Method in brief: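 Custom libraries of small protein domains were pooled and measured in a high-throughput format, with quantitative proteomics as the read-out. Each library was stressed at 50°C. The value is the log2 fold change in the amount of each protein that stays soluble after stress, used as a measure of aggregation propensity; higher values mean more of the protein stays soluble.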

Sequence	soluble fraction (log2)
HMHEIVDTVLQVKQSVEADPLIAPALKNKEIVFQLNAKGVFQFKNAVIQVASALGISKNTVYMHLRNNK	-1.89
HMHETMGQIIKRLRKERGLTQESLAERLGVTFQAVSKWETDAGMPDVSQIVPLANAFGVRTDVLFGLEGRD	-0.111
HMHEYSRIYQQQWWDNATGADAYHVIHSARSRAAQDPEAARALEYLEEQFRIRYGVRTEDFLGYLHD	-0.411
HMHFENEETFVLPLVREGFSEQQQLEMVDRLLFDANTDNPRWIIDWMASELPSTQRELLLDLEKRLAEVRS	-0.117
HMHFEWNELRKAINDFLAEQNMNEDKQLGPYFIQRDIVVPETGTEIDSKKFSEVFKHKVIMYLFDDAAKQ	-0.0513
HMHGESISVPDLRGQKMERMPAFLADKHLQFKVIDSLFDLEKNPGTVLEQDPAPNSKVKEGRTIYLTVNAQ	-0.022
HMHGQGTYTSPDGTKYVGDWQDEKMHGQGTYTYPDGMKFVGEFKDNKPWNGTGYDKYGNVKATFSNGVGKS	0.066
HMHGSSSTVPPVKGLSFEQARLTLAENDLTVEISDSIYDRNARPGTVVESWPRAGSVVKQGRQVYVTVTAF	-0.922
HMHHDDHNQQEEIKEKLLAMVADGERHHVTEVRQLDEDWDMVTKVMKELMDEEQLLMDGSYLILSA	-0.0951
HMHHSGLRQSQFDEISRQIRSLLEMESLSLQELKTRMEDVPEEQLTKVVSYLLSEEIIRQENGRLQ	-0.0768
HMHKAVVGPPNARKLAVTYGFKRWPALVFFRDGKYLGAVDGLRLWADLVREADEIMHSEPHYP	-0.166
HMHKFMEQNQDRRLSRMKELIGILSEAAKTYYQESREIMSNFQYDRMYDELLELEKETGVVMAGSPTQKV	-6.44e-05
HMHKKQEVQDSIDAAEEFMRASGVPAELITSKRAYAVKAIYADAVDKGTPDEIVKKDGMIVALISQMRS	0.267
HMHKLTIEEALNYKTPANAGGPYSGKPFRDIYDQRGKAAVISFAKYYLSKATPEDPMVEVYRTLLDGAMEL	-0.875
HMHKREKSFFETIYDDIPGIGKKRRVQLLSAYPTLDSLKSVTLEELKQIVPEESAKLILEKRDSR	0.0407
HMHPARITATVRVGEGDLVDIEREAELGGPIHSKGVMILSSFLGARYARTVPLSLSASLVFEQSY	0.0114
HMHPDALTEREREVLSLLADGLSNREIAARLVLALGTVKWYISVIYSKLGVTRRTQAIARARELHLV	-0.0971
HMHPEETVNLILDAAFRLFLEKGYEHTSIQDIIGQLGGLSKGAIYHHFNSKEDILIAVTDRMTA	-1.81
HMHPEQTLEKIVDISAELFAKKGYEQTSIQDILDATGLSKGGLYHHFKSKEEILEAVMQKRVQY	0.0883
HMHPFELNTVTEGQLKRLPFLSDLQIRELLEYRSRYGKMLTLYELKNVEAFDLETISLLVPFIYISEI	-1.38
HMHPKTPDELLALMSEEQRGQIEQLAKLVLMAVSYSGASYYDAVTTMYPRMSEERRRIITHVLNTASP	-0.652
HMHPLFRVVLAGEPNGVGLDDWLTRHEAELINGPSAIGVLTVKIAMGRRSFETVLDEIRADGETIFVEPV	-2.66
HMHPTDMKLTARLEEGAQFVRTQQLSKAIEIFTEVIKLDQNWAEAWNKRATVFYMMGKFKQSQEDIDKVLA	-0.0571

Sequence	soluble fraction (log2)
HMHPTEKNLTSLLADGSFYMNQNKLETAYDTFTKTIELDPSWAEAWNKRATVLYLMGKYELSQADIDQV	-0.0645
HMHPVTGRIGTVTAANGLNLRADSSEYANVVATLGYGVDVTVTGERINGFYPVRVGTLSGYVSADYVSFNS	-0.238
HMHQVHKIDGVKYYLHLVEKGNTLYGISKQYNVSVERIEKANTEALSDGLKENQTLLIPVTSDNKKT	0.0414
HMHREITGSLAERNGRYTAILNLYDEDGKRRQKSIALGIPVKGNKRKAQAQLEELKRAYSLGLPQ	-0.115
HMHRGTPASIIAAAKQYLTGGQTVELYEREGGPWTFRLRTYLSETPYPEKVRASVEALKPAGVVFLYELQS	-0.207
HMHRIKRRNDTLVSALDSIAGIGAKRKKALLQHFGSVRAIKAVSAEEIAKVEGISPTLANQIFEAL	-0.605
HMHRTMFYLDVDLAEGQSVKMAVHEDDDPGELAARFADEHQLKSRAMEKLRSVIEENVRLHRRNQ	-0.306
HMHRTRNAERTRAAVLKAAAEVLAERGTGASLARIAEVAGVSKSGLLHHFANREQLIVALLED	-0.984
HMHSIFPVIRSTSFPTKSNDGELFITSDHTAETRIYYALDLGNTYRLIDQKVMNEINLTESLVKETARF	-1.9
HMHSILDDIEGIGPARRKALMRHYMNLDAIKSATVEELAAVPSMNEKSAKAVHNFFHQQKKD	0.242
HMHSKQRDAIFENLRSRKDHPTAEEIYLSLKPAMPAISLATVYRNLAQLENEGLILRLGSGGSARYDGDT	-0.441
HMHSLGDQVFETIKELIVNNTYQPGELLQIDKLAAEFGVSTTPVREALLRLEGLGLVDIERNKAAVVT	-0.112
HMHSPLLDRYLAEVGWRLRHLSGAQREDILAGLREHIADLESAGVAPEEIVARLGSPESVADAAAGEF	-0.334
HMHSPTFYVHVVGQVKVPGVYELEVGSRLFDAVIAAGGFKDDADQASVNLARPLSDGEQIVVLKLGDQ	-0.251
HMHTADDFKQLAKQTSNGQLRTRYLALYLFKNGETRTQIATYLGVARGSVNTWVSNYLAHGLEGLQSKP	-2.65
HMHTSEDLEKLLTRYFQSHESINRQQFEQLSGFTRTTASRRLKALVEAGKLKNIGLHHFPVYKPTEGNF	-0.354
HMHVGVWIMNEKGEILLEQRASNKKVDPNKWARIGGHVDAGEKPIQAIQREILEEIGVKIPLENFIVLET	-0.335
HMHVLAVDEALHKLTELNELHAKIVEMRFFSGMTVQEVADELGVSKRKIESEWTMIKAWLRKELN	-0.665
HMHVSLSGKIHSELRKLILNGELKAGERLPSEPDLAHELGVSRNSLREAIGLLQREGLLLKKHGIGTFVTD	-0.829
HMHVYQSLVTDRVVPGGGYRTTEAILSTEAWRNTLLEQAKRELIGVRNKYASLTELAKVWTAIDTVT	-0.586
HMHYALTVDFPAALEARIDPAHRAALRGVLAHDPRPSYQSDPERLYGVAFAGKNVKFTVEDGVLTVRKIEE	0.0218
HMHYKLIIFENHTKSTSLDITPEQARQILGVTDYTPEQYEILAEITNRPASYFMDDLVDYYVD	-2.39
HMHYNMNYLENLTKTELFDLAKNKFGLTYAEMERHLSIPEGGARYAIKAEHSKYGSDIKKYLVEFLLE	-1.18

Sequence	soluble fraction (log2)
HMIADPAKPDWTTILAPVTTGTTVTHKTFGQGTVTKLDKTKKYLTVSFAAGQKNFVFPNAFIDGFLK	0.203
HMIADSSSIHQDAKQQLHSYLRTNIQPLMRAGKQLDLKDILHHVTIRKPKLVQQLGMKQVQHMVQVLLD	0.224
HMIAGHLQEKKGFFYIVLSYPDAAGKRKTKWFPTKLSVKGNKKKAEVMLMDARKTFVPPETPL	-0.501
HMIAITVGSKVRVKAGATFSDGTKPFTEVYNTVYDVQLLSRNGKEARIGIGEQWTGWMYISDLYPADQ	-0.359
HMIAPQISSGKVNTKELNVRSGPATTFGIVKKLPLNAMVGIFEEKNGWFRIATGQWVSKTYVDL	-1.5
HMIAVLEEGSRFRAINDISGKPFGPEMIIKNGQVIAAGKKILTKPKKLIGKKEGTKFNISGKEYVIKDI	-0.614
HMIAWNFDTMKESLSEMERVDYQEFIKAFLSLELSISDRTILNQVYQDYMDEDDLSLISDELRV	0.0819
HMIDDNTIIQIGDSYSKSIRLLGEPIELKNRSLNQKSYFMAVYDFKGRRYRLFFENDVLFDILRD	-1.86
HMIDELLDPTHRIMVRHPRVDYVSPGFLIGPDKDVILWGFTGGIIARLFDFLGWTRPWDQSHVQDLPPYML	-0.202
HMIDENILSEEIKHYIETNNYAKDDKLPSERSLASLFNVSRALVRKSLISLVDVNYLYVKDKSGYYING	-0.0735
HMIDEPENLIQEDKMVNIIYDLALLEGVKTFNSSNFQSVKSNDFVYKKYKIDSLQFAKSTQFYASDINR	-0.168
HMIDFDEIEILSSSKIEKIENSEYLKSSIFEKDSNQYIYRLSFENRDQLKNFKKEIEDIDQIKKIDVTY	0.103
HMIDHKVIRSFRQKRNMTLQELAQKANLSVSYLSEIELGKKQPSLETLDKLSKALNISLEGL	-0.116
HMIDHLPPQRAAVLAFLQRELVAGRSPSLAEIALAFGFASRNAAQKHVQALVADGLLEQATGRSRGLRLPG	-1.67
HMIDIGSKIKKLRSKKSIEIGKKYTGAMLANELGISRSYLGDIESGRTVPNEIILGKIADIFDVDIYELIG	-0.256
HMIDLPEAFIQQLKEAVDVGDVTGLRELLGQLRRRYPQQSALSDEAERLLREFDFERLAQLFEGLD	-1.42
HMIDNFFTIRFNYSKINEVIRLLKEFNGEIFNKNYDKNEYIIEFSIPKKDAALLISKLKNITGLTIEQ	-0.00473
HMIDQIAEQLQQRLAVDTAFATIQRDYPDVIANKDIELLTAIKVNQKIAEGASRASAMLESAKEVYETL	-0.0203
HMIDRPLTLVEDYERFAGELAKITLRFMLDGRKRFNGRLAGFDEDGKIVLETSFGRFAFSFDEIDSARI	-2.68
HMIDSVFASYRQVALDDELWDKVRNGAVLPKVELFEVMDGPVLFTYQSKIVAMYEPHPTKAGYIKPRKMFL	-1.18
HMIDTTKILPGQEFKNMQELSVALTGQKMPAGKGYVLQQEKFKLYFSWKKITGTHKLIIDEIYEEPKT	-3.44
HMIDYIKYTVDGKTYELINNWDGTWSRELEAPLVAGRYDLLLEISQNGLVTYIDSSDPRYEFYLDVI	-3.12
